Laboratory results from PMC3185416.
Read-outs that look alike come from different tables or passages of the source.

Legend:
Smad2dE3 MH1 = Smad2dE3 MH1 (UniProt Q62432-2 1-153, del79-108); assay: EMSA
Smad3 MH1 = Smad3 MH1 (UniProt Q8BUN5 1-143); assay: EMSA
Smad1 MH1 = Smad1 MH1 (UniProt P70340 1-136); assay: EMSA
Smad4 MH1 [1] = molecular target: T1, Smad4 MH1 (mouse, UniProt P97471 1-140); assay: EMSA
Smad4 MH1;Smad3 MH1 = Smad4 MH1;Smad3 MH1 (mouse;mouse?, UniProt P97471;Q8BUN5 1-140;1-143, |); assay: EMSA
Smad4 MH1;Smad2dE3 MH1 = Smad4 MH1;Smad2dE3 MH1 (mouse;mouse?, UniProt P97471;Q62432-2 1-140;1-153, |del79-108); assay: EMSA
Smad4 MH1;Smad1 MH1 = Smad4 MH1;Smad1 MH1 (mouse;mouse?, UniProt P97471;P70340 1-140;1-136, |); assay: EMSA
Smad4 MH1dN10 = Smad4 MH1dN10 (mouse, UniProt P97471 11-140); assay: EMSA
Smad4 MH1dN8 [2] = molecular target: T2, Smad4 MH1dN8 (mouse, UniProt P97471 9-140); assay: EMSA
Smad4 MH1dN12 = Smad4 MH1dN12 (mouse, UniProt P97471 13-140); assay: EMSA
Smad4 MH1dN3 = Smad4 MH1dN3 (mouse, UniProt P97471 4-140); assay: EMSA
Smad4 MH1 AG/SH = Smad4 MH1 AG/SH (mouse, UniProt P97471 1-140, A85S;G86H); assay: EMSA
Smad4 MH1 105HKN107/HSHH = Smad4 MH1 105HKN107/HSHH (mouse, UniProt P97471 1-104+=HSHH+108-140, internal_change); assay: EMSA
Smad4 MH1 K106S = Smad4 MH1 K106S (mouse, UniProt P97471 1-140, K106S); assay: EMSA
Smad4 MH1 R38K = Smad4 MH1 R38K (mouse, UniProt P97471 1-140, R38K); assay: EMSA
Smad3 MH1 K33R = Smad3 MH1 K33R (UniProt Q8BUN5 1-143, K33R); assay: EMSA
Smad3 MH1 99HSHH102/HKN = Smad3 MH1 99HSHH102/HKN (UniProt Q8BUN5 1-97+=HKN+102-143, internal_change); assay: EMSA
Smad3 MH1 S100K = Smad3 MH1 S100K (UniProt Q8BUN5 1-143, S99K); assay: EMSA
Smad4 MH1 [3] = molecular target: T1, Smad4 MH1; assay: EMSA; remark: listed apart in the source
Smad4 MH1dN8 [4] = molecular target: T2, Smad4 MH1dN8; assay: crystal structure
Smad4 MH1 [5] = molecular target: T1, Smad4 MH1; assay: EMSA; remark: listed apart in the source

Measured: binding result

Smad1 MH1, sequence (P70340 1-136): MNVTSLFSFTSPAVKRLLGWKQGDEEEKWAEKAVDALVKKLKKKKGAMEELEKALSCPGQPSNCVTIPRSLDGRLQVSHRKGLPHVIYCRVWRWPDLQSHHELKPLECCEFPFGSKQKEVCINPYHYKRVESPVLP

B1: palindromic SBE (EMSA) (dsDNA)
DNA 1: TCAGTCTAGACATAC
DNA 2: GTATGTCTAGACTGA
not listed: Smad4 MH1 [3] | Smad4 MH1dN8 [4] | Smad4 MH1 [5]
binds: all other assays above

B2: JunB promoter element (dsDNA)
DNA 1: GACAGTCTGTCTGCC
DNA 2: GGCAGACAGACTGTC
binds: Smad4 MH1 [3]

B3: OPN1 promoter element (dsDNA)
DNA 1: TGGAGACTGTCTGGA
DNA 2: TCCAGACAGTCTCCA
binds: Smad4 MH1 [3]

B4: palindromic SBE 16-bp (crystal) (dsDNA)
DNA 1: TGCAGTCTAGACTGCA
DNA 2: TGCAGTCTAGACTGCA
binds: Smad4 MH1dN8 [4] | Smad4 MH1 [5]
